The numbers were not newly measured in paper PMC7419686, which cites them from elsewhere.

Broadly, the Kd is a measure of binding affinity in units of concentration.

In the series the target is MDMX (Homo sapiens) (UniProt O15151).
Chain of MDMX (Homo sapiens) (O15151 whole entry): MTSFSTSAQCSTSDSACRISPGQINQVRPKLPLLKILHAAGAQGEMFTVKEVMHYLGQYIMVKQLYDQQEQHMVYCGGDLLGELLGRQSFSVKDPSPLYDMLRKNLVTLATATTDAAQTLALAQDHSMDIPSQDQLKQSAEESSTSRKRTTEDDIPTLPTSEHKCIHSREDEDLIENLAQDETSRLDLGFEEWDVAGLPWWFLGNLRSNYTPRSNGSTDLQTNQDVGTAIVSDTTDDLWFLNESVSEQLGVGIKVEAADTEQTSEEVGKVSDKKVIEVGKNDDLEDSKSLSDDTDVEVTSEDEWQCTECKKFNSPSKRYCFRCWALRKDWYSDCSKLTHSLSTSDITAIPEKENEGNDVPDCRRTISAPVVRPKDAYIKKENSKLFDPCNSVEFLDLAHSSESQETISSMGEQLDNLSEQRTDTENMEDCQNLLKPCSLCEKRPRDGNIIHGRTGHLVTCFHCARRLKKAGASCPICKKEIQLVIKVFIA

Take SAH-p53-8 (from UniProt P04637): the Kd was 2.3 nM.
